Legend:
rat plasma proteins = experiment: equilibrium dialysis, drug at 10 and 100 µM, rat plasma
human plasma proteins = experiment: equilibrium dialysis, drug at 10 and 100 µM, human plasma
monkey plasma proteins = experiment: equilibrium dialysis, drug at 10 and 100 µM, monkey plasma

Measured: in vitro plasma protein binding

R5000 (peptide)
> 99.9%: rat plasma proteins | human plasma proteins | monkey plasma proteins

Reference: patent US20180369322A1
